Source: patent publication US11464871B2, “Methods and systems for polymer precipitation and generation of particles” (priority 2012, dated 2022)

Test: Physical stability and re-dispersion of chilled-acetone precipitated polymer conjugate particles
Type: physicochemical
Protocol: A 600 mL beaker of 300 mL of acetone with magnetic stir bar was pre-chilled to −78° C. in a dry ice/acetone bath. A solution of polymer conjugate HG6 (2 grams), obtained without further preparation from Example 3, was added dropwise over a 4 minute period into the beaker with chilled acetone with stirring and maintained in the dry ice/acetone bath. Individual free flowing polymer particles (resembling chards or flakes) were formed (FIG. 3) and remained in suspension under stirring conditions. After 25 minutes, the chilled acetone was decanted and replaced with fresh pre-chilled acetone (300 mL at −78° C.) and stirred for an additional 30 minutes to afford a suspension of polymer particles in chilled acetone.
From the polymer particles/chilled acetone suspension further steps were conducted. First, a portion of polymer particles (still in acetone) was removed from the suspension and allowed to dry at room temperature. […] A second portion of polymer particles (still in acetone) was removed from the suspension and frozen in liquid nitrogen (N2) and lyophilized for 24 hours.

Poly(CDDCys-PA-PEG)-Gly-CPT [HG6]
Re-dispersion of lyophilized polymer particles in water (frozen in liquid N2, lyophilized 24 hours, water, even after 24 hours and sonication): did not re-disperse in water
Physical stability of lyophilized polymer particles in ambient environment (lyophilized particles exposed to the ambient environment): melted into yellow oil
Re-dispersion of lyophilized polymer particles with acetone (lyophilized particles, with addition of acetone): re-dispersion was successful
Physical stability of precipitated polymer particles allowed to dry (portion removed from acetone suspension, dried at room temperature): melted into yellow oil
Physical stability of polymer particle suspension in acetone (still in acetone, warmed to room temperature for 72 hours): remained a stable free flowing suspension
